Marks after values point to notes of the source that are not given here.
B1: FadM: E. coli long-chain acyl-CoA thioesterase (protein, UniProt P77712 1-132, looked up)
Long-chain acyl-CoA …: MQTQIKVRGYHLDVYQHVNNARYLEFLEEARWDGLENSDSFQWMTAHNIAFVVVNININYRRPAVLSDLLTITSQLQQLNGKSGILSQVITLEPEGQVVADALITFVCIDLKTQKALALEGELREKLEQMVK
B2: YdiI: E. coli Acyl-CoA thioesterase (protein, UniProt P77781 1-136, looked up)
1,4-dihydroxy-2-naphthoyl-CoA …: MIWKRKITLEALNAMGEGNMVGFLDIRFEHIGDDTLEATMPVDSRTKQPFGLLHGGASVVLAESIGSVAGYLCTEGEQKVVGLEINANHVRSAREGRVRGVCKPLHLGSRHQVWQIEIFDEKGRLCCSSRLTTAIL
B3: TesA: E. coli multifunctional acyl-CoA thioesterase I and protease I and lysophospholipase L1 (protein, UniProt P0ADA1 27-208, looked up)
Thioesterase 1/protease …: ADTLLILGDSLSAGYRMSASAAWPALLNDKWQSKTSVVNASISGDTSQQGLARLPALLKQHQPRWVLVELGGNDGLRGFQPQQTEQTLRQILQDVKAANAEPLLMQIRLPANYGRRYNEAFSAIYPKLAKEFDVPLLPFFMEEVYLKPQWMQDDGIHPNRDAQPFIADWMAKQLQPLVNHDS
B4: YciA: E. coli acyl-CoA thioesterase (protein, UniProt P0A8Z0 1-132, looked up)
Acyl-CoA thioester hydrolase …: MSTTHNVPQGDLVLRTLAMPADTNANGDIFGGWLMSQMDIGGAILAKEIAHGRVVTVRVEGMTFLRPVAVGDVVCCYARCVQKGTTSVSINIEVWVKKVASEPIGQRYKATEALFKYVAVDPEGKPRALPVE

Columns and labels:
[1] = thioesterase activity (production of TNB at 412 nm); type: biochemical; conditions: crude cell extract; 200 μM substrate; expressed from pCA24N
Description: (§1) For AtoB and thioesterase characterization assays, the pCA24N-gene (-gfp) plasmids from the ASKA collection^44 were used. For expression of E. gracilis TER for kinetic characterization, the egTER gene was cloned into pTrcHis2A using the In-Fusion protocol (Clontech Laboratories, Inc., Mountain View, Calif.) following PCR amplification from the aforementioned codon-optimized egTER containing plasmid with the primer pair of F1pTH6hisEgter and R1pTH6hisEgter (Supplementary Table S3).
(§2) Cultures for enzymatic assays were grown overnight in 100 mL of LB media at 37° C. in 250 mL baffled flasks (Wheaton Industries, Inc., Millville, N.J.) in E. coli BL21 (DE3) cells induced with either 1 mM IPTG (pCA24N, pTrcHis2A) or 1 mM Arabinose (pUCBB-pBAD) at an OD600˜0.6, or expressed constitutively (pUCBB-ntH6). Reactions were monitored on either a Synergy HT plate reader (BioTek Instruments, Inc., Winooski, Vt.) at 25° C. (for reactions monitored at 300 nm or higher) or in a Biomate 5 Spectrophotometer (Thermo Scientific, Waltham, Mass.) for reactions at 263 nm.
(§3) For specific activity assays (reported in μmol substrate/mg protein/min) these supernatant fractions were utilized and protein concentration was established using the Bradford Reagent (Thermo Scientific, Waltham, Mass.) using BSA as the protein standard. Linearity was established for each reaction and the background non-enzymatic rate was subtracted to establish the activity.
(§4) Thioesterase activity was monitored by following the production of TNB at 412 nm ([…])^30. Reactions were carried out in the presence of 100 mM Tris pH 7.5, 200 mM KCl, […] DTNB and 200 μM of the ‘-CoA’ substrate in a volume of 200 μL at 25° C.

[2] = as above; type: biochemical; conditions: expressed from pCA24N; for Specific activities of selected thioesterases on Acetoacetyl-CoA / Specific activities of selected thioesterases on Acetyl-CoA / Specific activities of selected thioesterases on Butyryl-CoA / Specific activities of selected thioesterases on Crotonyl-CoA / Specific activities of selected thioesterases on RS-3-Hydroxybutyryl-CoA: crude cell extract, 200 μM substrate; for Specific Activity: Table 1
Description: as §1, §2, §3
For kinetic characterization, an appropriate amount of enzyme was established by checking linear range near predicted KM values. Then, the rates were measured for a range of substrates in order to establish kcat and KM. In the cases of FadB for the crotonase reaction and FadA in the “forward” thiolase reaction coupled with HBD, substrate saturation could not be established, as such, the kcat/KM for the reaction was determined by dividing the linear slope of Velocity vs. [Substrate] by the amount of enzyme used in the assays. For reactions that could be saturated, Velocity vs. [Substrate] was fitted by the EnzKIN Matlab module (mathworks.com/matlabcentral/fileexchange/26653) to establish Vmax and KM.
as §4

Molecule | Specific activities of selected thioesterases on Decanyl-CoA [1] | Specific activities of selected thioesterases on Acetoacetyl-CoA [2] | Specific activities of selected thioesterases on Acetyl-CoA [2] | Specific activities of selected thioesterases on Butyryl-CoA [2] | Specific activities of selected thioesterases on Crotonyl-CoA [2] | Specific activities of selected thioesterases on RS-3-Hydroxybutyryl-CoA [2] | Specific Activity ([2]; substrate Acetoacetyl-CoA) | Specific Activity ([2]; substrate Acetyl-CoA) | Specific Activity ([2]; substrate Butyryl-CoA) | Specific Activity ([2]; substrate Crotonyl-CoA) | Specific Activity ([2]; substrate RS-3-Hydroxybutyryl-CoA)
B1 | 0.034 ± 0.003 μmol/mg protein/min | 0.042 ± 0.004 μmol/mg protein/min | 0.0331 ± 0.0006 μmol/mg protein/min | 0.027 ± 0.001 μmol/mg protein/min | 0.0017 ± 0.0003 μmol/mg protein/min | 0.009 ± 0.002 μmol/mg protein/min |  |  |  |  | 
B2 | 0.18 ± 0.04 μmol/mg protein/min | 0.047 ± 0.001 μmol/mg protein/min | 0.036 ± 0.003 μmol/mg protein/min | 0.0917 ± 0.0007 μmol/mg protein/min | 0.078 ± 0.005 μmol/mg protein/min | 0.012 ± 0.002 μmol/mg protein/min |  |  |  |  | 
B3 | 0.47 ± 0.04 μmol/mg protein/min | 0.044 ± 0.005 μmol/mg protein/min | 0.036 ± 0.002 μmol/mg protein/min | 0.049 ± 0.002 μmol/mg protein/min | 0.007 ± 0.003 μmol/mg protein/min | 0.02 ± 0.01 μmol/mg protein/min |  |  |  |  | 
B4 | 3.7 ± 0.3 μmol/mg protein/min | 0.672 ± 0.007 μmol/mg protein/min | 0.222 ± 0.007 μmol/mg protein/min | 2.9 ± 0.2 μmol/mg protein/min | 0.27 ± 0.03 μmol/mg protein/min | 0.441 ± 0.009 μmol/mg protein/min | 0.672 ± 0.007^b μmol/mg/min | 0.222 ± 0.007^b μmol/mg/min | 2.9 ± 0.2^b μmol/mg/min | 0.27 ± 0.03^b μmol/mg/min | 0.441 ± 0.009^b μmol/mg/min

From patent US9994881B2, “Functionalized carboxylic acids and alcohols by reverse fatty acid oxidation in engineered microbes” (William Marsh Rice University, priority 2011, dated 2018)
